What all share (test): high-throughput RNA pulldown from lysate on Ni-NTA beads; HRP: 50 mM Tris pH 8, 150 mM NaCl, 1 mM beta-mercaptoethanol, 50 ug/ml BSA, 3 ug/ml yeast RNA, 0.5% heparin; ITC and FP: Tris pH 8, 200 mM KCl, 5% glycerol; MST: 50 mM Tris pH 8, 200 mM NaCl, 1 mM DTT, BSA, heparin, 0.05% Tween 20
Details in all cases: tags: N-terminal His-eGFP

Data set [1] concerns the target T1, GFP-9S library array, motif 4 ND N98D;D124T (synthetic construct, N98D;D124T).
T1 chain: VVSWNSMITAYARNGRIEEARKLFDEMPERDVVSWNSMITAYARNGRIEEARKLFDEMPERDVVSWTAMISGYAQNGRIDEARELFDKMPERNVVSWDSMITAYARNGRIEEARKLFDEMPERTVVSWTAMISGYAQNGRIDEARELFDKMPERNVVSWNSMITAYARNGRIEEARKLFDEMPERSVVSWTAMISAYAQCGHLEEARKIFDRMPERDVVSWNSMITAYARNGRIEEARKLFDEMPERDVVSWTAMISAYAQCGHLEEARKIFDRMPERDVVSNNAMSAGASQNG

Data set [2] deals with T2, GFP-9S library array, motif 4 ND N98Y;D124I (synthetic construct, N98Y;D124I).
T2 chain: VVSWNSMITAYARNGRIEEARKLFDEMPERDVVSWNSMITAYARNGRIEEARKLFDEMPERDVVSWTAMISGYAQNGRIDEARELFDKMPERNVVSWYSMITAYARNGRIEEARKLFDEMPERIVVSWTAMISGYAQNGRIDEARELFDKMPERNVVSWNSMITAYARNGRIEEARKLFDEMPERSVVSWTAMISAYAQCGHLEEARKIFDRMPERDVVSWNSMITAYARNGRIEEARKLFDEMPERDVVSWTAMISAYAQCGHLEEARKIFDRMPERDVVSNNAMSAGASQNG

Data set [3] deals with T3, GFP-9S library array, motif 4 ND N98S;D124H (synthetic construct, N98S;D124H).
T3 chain: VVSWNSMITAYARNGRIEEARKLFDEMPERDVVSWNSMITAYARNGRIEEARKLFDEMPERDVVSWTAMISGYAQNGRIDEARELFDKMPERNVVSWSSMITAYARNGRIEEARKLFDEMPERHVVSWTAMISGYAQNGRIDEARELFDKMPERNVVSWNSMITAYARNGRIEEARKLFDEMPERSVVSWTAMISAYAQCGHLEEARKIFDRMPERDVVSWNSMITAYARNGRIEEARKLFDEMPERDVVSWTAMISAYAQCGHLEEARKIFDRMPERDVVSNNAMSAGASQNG

Data set [4] addresses T4, GFP-9S library array, motif 4 ND N98S;D124S (synthetic construct, N98S;D124S).
T4 chain: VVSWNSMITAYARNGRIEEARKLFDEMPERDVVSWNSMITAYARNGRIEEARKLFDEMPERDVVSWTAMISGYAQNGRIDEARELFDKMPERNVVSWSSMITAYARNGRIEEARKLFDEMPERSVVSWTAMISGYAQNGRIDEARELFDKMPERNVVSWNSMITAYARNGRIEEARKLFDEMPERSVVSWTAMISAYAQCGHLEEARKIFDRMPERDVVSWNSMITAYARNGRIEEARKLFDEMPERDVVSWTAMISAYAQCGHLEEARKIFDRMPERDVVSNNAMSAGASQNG

Data set [5] deals with T5, GFP-9S library array, motif 4 ND N98C;D124V (synthetic construct, N98C;D124V).
T5 chain: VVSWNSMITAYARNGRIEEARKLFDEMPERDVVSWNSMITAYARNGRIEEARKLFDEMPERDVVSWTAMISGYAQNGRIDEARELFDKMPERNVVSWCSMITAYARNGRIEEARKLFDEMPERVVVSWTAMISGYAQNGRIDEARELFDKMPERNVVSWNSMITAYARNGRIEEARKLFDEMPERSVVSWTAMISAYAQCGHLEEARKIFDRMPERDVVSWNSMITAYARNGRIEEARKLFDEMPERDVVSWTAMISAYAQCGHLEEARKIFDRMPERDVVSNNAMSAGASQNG

A word on the Kd: it is a measure of binding affinity in units of concentration. A high value points to a looser complex. As to AUUACACGUGA (ssRNA) [Cy5-rpoA], the Kd was found to be 123 nM in data set [1] (label: 5' Cy5); 109 nM in data set [2] (label: 5' Cy5); 122 nM in data set [3] (label: 5' Cy5); 112 nM in data set [4] (label: 5' Cy5); 130 nM in data set [5] (label: 5' Cy5).

With AUUAUACGUGA (ssRNA) [IR-rpoA-U], the Kd in data set [1] (label: 5' IRDye 800CW) is 301 nM; in data set [2] (label: 5' IRDye 800CW) it was 340 nM; in data set [3] (label: 5' IRDye 800CW), 101 nM; in data set [4] (label: 5' IRDye 800CW), 69.8 nM; in data set [5] (label: 5' IRDye 800CW), 167 nM.

On to AUUAGACGUGA (ssRNA) [Cy5-rpoA-G], for which the dissociation constant (Kd) in data set [1] (label: 5' Cy5) was 106 nM; in data set [2] (label: 5' Cy5), 112 nM; in data set [3] (label: 5' Cy5), 99.4 nM; in data set [4] (label: 5' Cy5), 251 nM; in data set [5] (label: 5' Cy5), 124 nM.

On to AUUAAACGUGA (ssRNA) [IR-rpoA-A], for which the Kd in data set [1] (label: 5' IRDye 800CW) stood at 320 nM; in data set [2] (label: 5' IRDye 800CW), 347 nM; in data set [3] (label: 5' IRDye 800CW), 53.5 nM; in data set [4] (label: 5' IRDye 800CW), 65.3 nM; in data set [5] (label: 5' IRDye 800CW), 98.1 nM.

The values above are taken from paper PMC8809517, “Cofactor-independent RNA editing by a synthetic S-type PPR protein”.
